Substitutions are numbered along the chain they refer to.
What was measured:
HCT-116 cells = test: Clonal dilution assay for bystander effect cell killing; assay type: cell-based, human; details: 25 μM GCV 24 hours
Experimental: Each of the three HSV-1 TK expressing cell lines were plated with parental HCT-116 cells (total 2×10^5/well) in the following proportions: (parental: HSV-1TK cells) 100%:0; 95%:5%; 90%:10%; 75%:25%; 50%:50% and 0:100%. […] After 7 days, surviving cell colonies were fixed in 100% methanol, stained with 0.1% methylene blue and counted.
For determination of GCV sensitivity, parental HCT-116 and each HSV-1 TK expressing cells were seeded in 24 well plates (2×10^5/well) in 1 ml of media. The next day, 0, 0.1, 1 or 10 μM GCV was added to each cell line in triplicate. After 24 hours, for each well the media was removed, cells were rinsed twice in fresh media, trypsinized, then media was added to 1 ml per well. Each well of cells was then sequentially diluted from 1:10 to 1:10,000 in 1 ml of fresh media on a separate 24 well plate. After 7 days, surviving cell colonies were fixed in 100% methanol, stained with 0.1% methylene blue and counted. […]
It has been previously established that HCT-116 cells expressing HSV-1 TK are sensitive to bystander effect cell death via a connexin-43 gap junction mediated transfer of GCV metabolites (24). […] In these same cell lines, a greater than 4-log reduction in cell colony numbers was detected with 25% and 50% proportions of HSV-1 TK-expressing cells. […]

HSV-1 TK [1] = biological target: T1, HSV-1 TK (Human herpesvirus 1, UniProt P0DTH5, Q125E); details: previous study (17); cited from earlier work
T1 construct: glutathione-S-transferase (GST)
T1 sequence (P0DTH5 1-376 Q125E): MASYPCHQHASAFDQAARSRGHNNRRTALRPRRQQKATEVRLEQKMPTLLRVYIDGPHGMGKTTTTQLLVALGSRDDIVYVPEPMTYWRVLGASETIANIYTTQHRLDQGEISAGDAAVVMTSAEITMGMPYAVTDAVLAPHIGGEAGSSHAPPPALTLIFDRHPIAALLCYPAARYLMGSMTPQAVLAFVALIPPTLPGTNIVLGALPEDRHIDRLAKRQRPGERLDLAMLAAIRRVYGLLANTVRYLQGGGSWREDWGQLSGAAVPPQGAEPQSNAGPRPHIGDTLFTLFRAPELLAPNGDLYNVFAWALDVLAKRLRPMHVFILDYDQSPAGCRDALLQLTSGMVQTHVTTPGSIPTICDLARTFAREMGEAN

HSV-1 TK [2] = biological target: T2, HSV-1 TK (Human herpesvirus 1, UniProt P0DTH5, Q125N); details: previous study (17); cited from earlier work
T2 construct: glutathione-S-transferase (GST)
T2 sequence (P0DTH5 1-376 Q125N): T1 sequence (P0DTH5 1-376 Q125E) with E125N

For Glu-125, the “Bystander effect: decrease in cell colony numbers” value (HCT-116 cells; 10% proportions) is given as 1 log, the “Bystander effect: decrease in cell colony numbers” value (HCT-116 cells; 50% proportions) is given as roughly 3 log and the “Thymidine and ACV phosphorylation activities” value (HSV-1 TK [1]) is given as “no detectable activities”.
In the case of Asn-125, the “Increase in the Km of ACV” value (HSV-1 TK [2]) is given as 3 fold and the “Increase in the Km of thymidine” value (HSV-1 TK [2]) is given as 50 fold.

Source: patent publication US6610289B2, “Mutated herpes simplex virus type 1 thymidine kinases and uses thereof” (The Board of Trustees of the University of Arkansas, priority 1998, dated 2003)
